Data as given in IntAct's records for PubMed 21516123.

B1: Peroxiredoxin-1 (Mus musculus), P35700 (parent)
chain: MSSGNAKIGYPAPNFKATAVMPDGQFKDISLSEYKGKYVVFFFYPLDFTFVCPTEIIAFSDRADEFKKLNCQVIGASVDSHFCHLAWINTPKKQGGLGPMNIPLISDPKRTIAQDYGVLKADEGISFRGLFIIDDKGILRQITINDLPVGRSVDEIIRLVQAFQFTDKHGEVCPAGWKPGSDTIKPDVNKSKEYFSKQK
partner: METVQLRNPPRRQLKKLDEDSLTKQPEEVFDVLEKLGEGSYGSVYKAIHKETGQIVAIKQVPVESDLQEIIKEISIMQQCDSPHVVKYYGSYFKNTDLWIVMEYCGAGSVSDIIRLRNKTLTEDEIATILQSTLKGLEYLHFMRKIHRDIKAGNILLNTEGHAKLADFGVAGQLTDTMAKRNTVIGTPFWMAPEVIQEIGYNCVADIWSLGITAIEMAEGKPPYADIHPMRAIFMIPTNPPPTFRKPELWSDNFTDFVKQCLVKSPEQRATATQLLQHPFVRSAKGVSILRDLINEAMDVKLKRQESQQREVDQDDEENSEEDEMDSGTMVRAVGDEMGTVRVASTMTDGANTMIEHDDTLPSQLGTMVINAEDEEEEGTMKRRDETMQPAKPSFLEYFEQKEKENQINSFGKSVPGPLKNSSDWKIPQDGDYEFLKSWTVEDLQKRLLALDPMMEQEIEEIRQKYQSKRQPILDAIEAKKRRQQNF

Variants of: B1
Details: with stk4_human STK4, Q13043

| Variant | effect of a mutation on the interaction |
| --- | --- |
| C52S | disrupting interaction |
| C83S | decreasing interaction |
| C173S | increasing interaction |
